Data: patent US20260000752A1 (AKSTON BIOSCIENCES, published 2026)

Target: SARS-CoV-2-RBD-hIgG-Fc fusion protein of SEQ ID NO: 19

Binder	EC50
recombinant human Fc(gamma)RI, biotinylated (R&D Systems) (receptor, UniProt P12314 16-288, looked up) QVDTTKAVITLQPPWVSVFQEETVTLHCEVLHLPGSSSTQWFLNGTATQTSTPSYRITSASVNDSGEYRCQRGLSGRSDPIQLEIHRGWLLLQVSSRVFTEGEPLALRCHAWKDKLVYNVLYYRNGKAFKFFHWNSNLTILKTNISHNGTYHCSGMGKHRYTSAGISVTVKELFPAPVLNASVTSPLLEGNLVTLSCETKLLLQRPGLQLYFSFYMGSKTLRGRNTSSEYQILTARREDSGLYWCEAATEDGNVLKRSPELELQVLGLQLPTP	0.0339 µg/mL
recombinant human Fc(gamma)RIIa, biotinylated (R&D Systems) (receptor) AAPPKAVLKLEPPWINVLQEDSVTLTCQGARSPESDSIQWFHNGNLIPTHTQPSYRFKANNNDSGEYTCQTGQTSLSDPVHLTVLSEWLVLQTPHLEFQEGETIMLRCHSWKDKPLVKVTFFQNGKSQKFSHLDPTFSIPQANHSHSGDYHCTGNIGYTLFSSKPVTITVQVPSMGSSSPMGI	2.28 µg/mL
recombinant human Fc(gamma)RIIb, biotinylated (R&D Systems) (receptor) APPKAVLKLEPQWINVLQEDSVTLTCRGTHSPESDSIQWFHNGNLIPTHTQPSYRFKANNNDSGEYTCQTGQTSLSDPVHLTVLSEWLVLQTPHLEFQEGETIVLRCHSWKDKPLVKVTFFQNGKSKKFSRSDPNFSIPQANHSHSGDYHCTGNIGYTLYSSKPVTITVQAP	2.05 µg/mL
human Fc(gamma)RIIIb (receptor) GMRTEDLPKAVVFLEPQWYSVLEKDSVTLKCQGAYSPEDNSTQWFHNENLISSQASSYFIDAATVNDSGEYRCQTNLSTLSDPVQLEVHIGWLLLQAPRWVFKEEDPIHLRCHSWKNTALHKVTYLQNGKDRKYFHHNSDFHIPKATLKDSGSYFCRGLVGSKNVSSETVNITITQGLAVSTIS	11.7 µg/mL
